Results as given in the supplement of paper PMC6379048.

Experiments:
Experiment in all cases: EC50 of free RNA motif oligo competing protein binding to immobilised probe
CSTF2 = biological target: T1, CSTF2 (UniProt P33240)
T1 sequence: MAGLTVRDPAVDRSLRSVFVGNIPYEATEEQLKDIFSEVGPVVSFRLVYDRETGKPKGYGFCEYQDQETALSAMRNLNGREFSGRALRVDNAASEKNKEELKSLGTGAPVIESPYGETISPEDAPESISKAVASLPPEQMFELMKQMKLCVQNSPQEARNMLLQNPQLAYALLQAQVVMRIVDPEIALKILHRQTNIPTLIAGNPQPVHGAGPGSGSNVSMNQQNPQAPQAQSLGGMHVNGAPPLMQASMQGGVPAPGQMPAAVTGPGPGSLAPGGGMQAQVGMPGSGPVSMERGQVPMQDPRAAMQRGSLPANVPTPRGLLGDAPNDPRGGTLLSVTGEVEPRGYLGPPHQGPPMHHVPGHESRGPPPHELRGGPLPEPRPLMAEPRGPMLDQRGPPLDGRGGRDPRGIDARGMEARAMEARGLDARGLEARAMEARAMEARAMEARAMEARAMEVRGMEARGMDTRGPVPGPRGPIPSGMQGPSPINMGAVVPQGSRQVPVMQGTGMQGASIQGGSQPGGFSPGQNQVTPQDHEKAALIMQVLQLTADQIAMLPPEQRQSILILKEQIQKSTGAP
How it was run: (§1)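 HEK293-FT lysate (2.5 mg protein/well) was treated with free RNA oligos (0 nM to 30 μM) for 1 h at 4°C, then with the same oligos on NHS-Sepharose beads for 30 min at 4°C. Bound proteins were quantified by label-free LC-MS/MS relative to the control. EC50 came from a four-parameter log-logistic fit, and Kd is EC50 times a protein-dependent depletion factor.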

TOE1 = TOE1 (UniProt Q96GM8)
How it was run: as §1

CMTR1 = biological target: T2, CMTR1 (UniProt Q8N1G2)
T2 sequence: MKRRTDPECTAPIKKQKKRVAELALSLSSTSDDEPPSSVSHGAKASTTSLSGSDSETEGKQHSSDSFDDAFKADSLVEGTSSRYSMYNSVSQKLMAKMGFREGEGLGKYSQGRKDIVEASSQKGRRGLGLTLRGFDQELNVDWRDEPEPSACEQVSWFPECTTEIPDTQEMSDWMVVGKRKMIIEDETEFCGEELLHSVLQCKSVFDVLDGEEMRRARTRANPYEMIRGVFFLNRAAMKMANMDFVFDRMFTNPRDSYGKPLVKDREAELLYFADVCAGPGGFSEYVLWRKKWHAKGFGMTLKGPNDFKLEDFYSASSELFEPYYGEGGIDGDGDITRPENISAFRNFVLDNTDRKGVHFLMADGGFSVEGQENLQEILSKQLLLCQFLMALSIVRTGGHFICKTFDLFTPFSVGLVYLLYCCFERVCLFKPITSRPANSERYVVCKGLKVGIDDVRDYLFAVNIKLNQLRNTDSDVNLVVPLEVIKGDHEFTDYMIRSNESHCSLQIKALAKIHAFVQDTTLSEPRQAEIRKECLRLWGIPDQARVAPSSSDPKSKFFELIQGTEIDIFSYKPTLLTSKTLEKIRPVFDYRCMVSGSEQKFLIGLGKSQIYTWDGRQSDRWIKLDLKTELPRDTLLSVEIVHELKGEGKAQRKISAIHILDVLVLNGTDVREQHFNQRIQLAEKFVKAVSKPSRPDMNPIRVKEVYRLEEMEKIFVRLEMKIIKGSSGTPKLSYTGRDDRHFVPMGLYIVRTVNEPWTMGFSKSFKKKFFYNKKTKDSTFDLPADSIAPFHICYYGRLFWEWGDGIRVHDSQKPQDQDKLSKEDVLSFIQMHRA
How it was run: as §1

CHERP = biological target: T3, CHERP (UniProt Q8IWX8)
T3 sequence: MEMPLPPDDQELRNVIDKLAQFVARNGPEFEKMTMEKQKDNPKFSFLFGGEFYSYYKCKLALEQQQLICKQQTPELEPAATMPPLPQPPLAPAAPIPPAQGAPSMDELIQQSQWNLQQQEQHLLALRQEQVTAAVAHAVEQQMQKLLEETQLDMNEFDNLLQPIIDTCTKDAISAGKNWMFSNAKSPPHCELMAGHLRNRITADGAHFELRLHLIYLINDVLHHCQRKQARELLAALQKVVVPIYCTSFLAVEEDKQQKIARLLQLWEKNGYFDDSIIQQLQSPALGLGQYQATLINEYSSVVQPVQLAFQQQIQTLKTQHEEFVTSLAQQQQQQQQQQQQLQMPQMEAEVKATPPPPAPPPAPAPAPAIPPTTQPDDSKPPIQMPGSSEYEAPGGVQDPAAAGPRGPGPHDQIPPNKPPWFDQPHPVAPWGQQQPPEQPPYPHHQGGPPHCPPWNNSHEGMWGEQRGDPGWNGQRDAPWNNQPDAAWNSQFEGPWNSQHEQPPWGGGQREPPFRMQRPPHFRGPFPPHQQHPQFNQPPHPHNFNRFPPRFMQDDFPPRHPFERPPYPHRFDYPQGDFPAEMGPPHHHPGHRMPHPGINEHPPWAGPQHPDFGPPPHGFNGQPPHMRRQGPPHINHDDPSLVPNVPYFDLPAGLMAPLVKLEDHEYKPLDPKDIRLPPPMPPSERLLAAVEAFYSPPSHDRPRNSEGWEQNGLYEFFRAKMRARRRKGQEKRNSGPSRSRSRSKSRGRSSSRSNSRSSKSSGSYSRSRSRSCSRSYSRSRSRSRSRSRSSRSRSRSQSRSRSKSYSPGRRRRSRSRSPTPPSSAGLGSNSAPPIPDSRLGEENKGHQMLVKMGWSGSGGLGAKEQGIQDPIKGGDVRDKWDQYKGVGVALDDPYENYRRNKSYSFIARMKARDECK
How it was run: as §1

Sequence: UAUUUAU
- EC50 (CSTF2): 463 nM
- EC50 (TOE1): 1420 nM
- EC50 (CMTR1): 1200 nM
- EC50 (CHERP): 35.1 nM

Sequence: AAUAAA
- EC50 (CSTF2): 83.9 nM
- EC50 (TOE1): 2110 nM
- EC50 (CMTR1): 298 nM
- EC50 (CHERP): 1050 nM
